Target: Rabbit skeletal actin, filamentous (F-actin) (rabbit) (UniProt P68135)
Assay: fluorescence microscopy of purified drebrin on actin filaments

For “mouse drebrin isoform E (natural protein)”, the fraction of actin filaments heavily (>50%) decorated by drebrin was 16%.

Reference: PMC12974149
